From patent US12497460B2, “Anti-MSR1 antibodies and methods of use thereof” (REGENERON PHARMACEUTICALS, INC., priority 2018, dated 2025)

T1: biot-AGE-BSA binding to His9-hMSR1 (Homo sapiens, UniProt P21757)
T1 construct: human MSR1 extracellular domain expressed with a N-terminal nonahistidine tag; His9 (nonahistidine) (N); purchased R&D Systems 2708-MS
T1 sequence (P21757 77-451 limits assumed): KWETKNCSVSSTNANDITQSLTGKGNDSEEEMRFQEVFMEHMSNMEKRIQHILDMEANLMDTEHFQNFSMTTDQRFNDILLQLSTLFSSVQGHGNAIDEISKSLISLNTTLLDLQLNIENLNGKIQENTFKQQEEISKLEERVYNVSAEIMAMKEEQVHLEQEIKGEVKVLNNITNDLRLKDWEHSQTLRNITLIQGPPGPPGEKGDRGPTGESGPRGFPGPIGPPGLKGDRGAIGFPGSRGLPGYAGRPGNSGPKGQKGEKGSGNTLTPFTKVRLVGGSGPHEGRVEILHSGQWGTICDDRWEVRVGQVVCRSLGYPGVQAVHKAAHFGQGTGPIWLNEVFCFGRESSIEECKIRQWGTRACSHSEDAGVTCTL

B1: H1H21227N-N297Q: "modified versions of 21227N (H1H21227N-N297Q and H1H21227N-N297D)"; anti-MSR1 antibody "with a N297Q single point mutation" (antibody, V domains shown)
VH: QVQLVQSGAEVKKPGASVKVSCKVSGYTLTELSIHWVRQVPGKGLEWMGGFDPEEGETIFAQEFRDRVTLTEDTSPDTAYMELSSLKSEDAAVYYCTTPRYCNNGICYDYWGQGTLVTVSS
VL: DIQMTQSPSSLSASVGDRVTITCRASQSISNYLNWYQQKPGKAPKLLIYTASSLQSGVPSRFSGSGSGTDFTLTISSLQTEDFATYYCQQSYSNFPITFGQGTRLEIKR
B2: H1H21231N-N297Q: modified version of "21231N (H1H21231N-N297Q) anti-MSR1 antibodies" with "a N297Q single point mutation" (antibody, V domains shown)
VH: EVQLVESGGGLVQPGGSLRLSCAASGFTFSDHYMDWVRQAPGKGLEWVGRTRNKANSHTTEYTASVTGRFTISRDDSRNSLYLQMNSLKTEDTAVYYCVRAGIIGTLFDYWGQGTLVTVSS
VL: DIQMTQFPSSLSASVGDRVTITCRASQSISSFLNWFQQKPGKAPKFLIYAASSLQSGVPSRFSGSGSGTDFTLTISSLQPEDFATYYCQQSYSSPPITFGQGTRLEIKR
B3: H1H21231N: "anti-MSR1 antibodies ... (21227N, 21231N, 21234N) were produced with the original human Fcγ portion"; "H1H" = human IgG1 Fc (antibody, V domains shown)
VH: EVQLVESGGGLVQPGGSLRLSCAASGFTFSDHYMDWVRQAPGKGLEWVGRTRNKANSHTTEYTASVTGRFTISRDDSRNSLYLQMNSLKTEDTAVYYCVRAGIIGTLFDYWGQGTLVTVSS
VL: DIQMTQFPSSLSASVGDRVTITCRASQSISSFLNWFQQKPGKAPKFLIYAASSLQSGVPSRFSGSGSGTDFTLTISSLQPEDFATYYCQQSYSSPPITFGQGTRLEIKR
modifications: human IgG1 Fc
notes: "anti-MSR1 antibodies ; (21227N, 21231N, 21234N) were produced with the original human Fcγ portion"; "H1H" = human IgG1 Fc
B4: H1H21227N-N297D: "The 21227N antibody was also produced as a third version with a N297D mutation" (antibody, V domains shown)
VH: QVQLVQSGAEVKKPGASVKVSCKVSGYTLTELSIHWVRQVPGKGLEWMGGFDPEEGETIFAQEFRDRVTLTEDTSPDTAYMELSSLKSEDAAVYYCTTPRYCNNGICYDYWGQGTLVTVSS
VL: DIQMTQSPSSLSASVGDRVTITCRASQSISNYLNWYQQKPGKAPKLLIYTASSLQSGVPSRFSGSGSGTDFTLTISSLQTEDFATYYCQQSYSNFPITFGQGTRLEIKR
B5: H1H21227N: "anti-MSR1 antibodies ... (21227N, 21231N, 21234N) were produced with the original human Fcγ portion"; "H1H" = human IgG1 Fc (antibody, V domains shown)
VH: QVQLVQSGAEVKKPGASVKVSCKVSGYTLTELSIHWVRQVPGKGLEWMGGFDPEEGETIFAQEFRDRVTLTEDTSPDTAYMELSSLKSEDAAVYYCTTPRYCNNGICYDYWGQGTLVTVSS
VL: DIQMTQSPSSLSASVGDRVTITCRASQSISNYLNWYQQKPGKAPKLLIYTASSLQSGVPSRFSGSGSGTDFTLTISSLQTEDFATYYCQQSYSNFPITFGQGTRLEIKR
modifications: human IgG1 Fc
notes: as for B3

Target: T1, biot-AGE-BSA binding to His9-hMSR1
Assay: Competition sandwich ELISA, blocking of biot-AGE-BSA binding
Conditions: 400 pM biot-AGE-BSA
Protocol: The ability of anti-MSR1 antibodies disclosed herein to block the binding of various ligands to human MSR1 was measured using three competition sandwich ELISA assays. The ligands used in the assays were: (1) acetylated LDL (Ac-LDL), (2) oxidized LDL (Ox-LDL), and (3) advanced glycation end-products of bovine serum albumin (AGE-BSA).
For the assay, recombinant monomeric human MSR1 protein comprised of a portion of the human MSR1 extracellular domain expressed with a N-terminal 9-Histidine tag (His9-hMSR1; R&D Systems, Cat #2708-MS) was coated at a concentration of 2 μg/mL in PBS on a 96-well microtiter plate overnight at 4° C. for use in competition ELISA assays with Ac-LDL, Ox-LDL, or biotinylated-AGE-BSA (“biot-AGE-BSA”). […] Anti-MSR1 antibodies or isotype control antibodies were serially diluted as appropriate for each tested ligand and added in duplicate for each serial dilution set to microtiter plates coated with His9-hMSR1. Buffer alone was also added to wells on each coat. After 1 hour incubation at room temperature, without wash, a final constant concentration of 50 pM Ac-LDL (Life Technologies/ThermoFisher Scientific, Cat #L-35354), 5 nM or 10 nM Ox-LDL (Alfa Aesar, Cat #J65591), or 400 pM biot-AGE-BSA (R&D Systems, Cat #BT4127) were added to plates with His9-hMSR1, and the plates were incubated for an additional 1 hour at room temperature. (Concentrations of Ac-LDL, Ox-LDL and biot-AGE-BSA for antibody inhibition assays were selected from the approximate midway point within the linear portion of individual binding curves of Ac-LDL, Ox-LDL or biot-AGE-BSA to plate-coated His9-hMSR1.) Wells were washed, and plate-bound Ac-LDL or Ox-LDL were detected with anti-LDL rabbit antibody (Alfa Aesar, Cat #J64398) in combination with anti-rabbit IgG (H+L) specific donkey polyclonal antibodies conjugated with horseradish peroxidase (HRP) (JacksonImmunoResearch, Cat #711-035-152) and biot-AGE-BSA was detected with a streptavidin-HRP (ThermoFisher Scientific, Cat #N200). Plates were developed using TMB substrate solution (BD Biosciences, Cat #51-2606KC & Cat #51-2607KC) according to manufacturer's recommendation and absorbance at 450 nm was measured on a Victor™ Multilabel Plate Reader (PerkinElmer™). This assay was conducted in four different assay runs.
Data analysis was performed using a sigmoidal dose-response model within Prism™ software (GraphPad). Percent blockade at maximum concentration of the antibody tested in each assay was calculated as an indicator of the ability of the antibodies to block the binding of Ac-LDL, Ox-LDL or biot-AGE-BSA to His9-hMSR1 on the plate relative to the baseline of the assay. In the calculation, binding signal of the same concentrations of Ac-LDL, Ox-LDL, or biot-AGE-BSA used for the assays in the absence of antibody was referenced as 100% binding or 0% blocking, while the baseline of the assay, defined as binding signal of the sample of buffer without MSR1 ligands or antibody, was referenced as 0% binding or 100% blocking. The maximum percent blockade at the highest concentration of antibody tested in each assay are reported for all antibodies. Negative percent blockade numbers reflected higher MSR1 ligands binding to plate coated His9-hMSR1 in the presence of antibodies.

Going from B1 to B2, the “Anti-MSR1 antibody (300 nM) blocking of biot-AGE-BSA binding to His9-hMSR1 % Blocking” value (shortened to “Anti-MSR1 antibody … to His9-hMSR1 % Blocking”) falls from 96% to −50%.

Going from B3 to B4, the “Anti-MSR1 antibody … to His9-hMSR1 % Blocking” value rises from −44% to 97%.

For B5, the “Anti-MSR1 antibody … to His9-hMSR1 % Blocking” value was 99%.
